In the supplement of paper PMC10567573:

B1: GLTSCR2 (parent)
chain: YNPSFEDHQTLLSAAHEVELQRQK
B2: ZNF193 (parent)
chain: QKRYHCKECGKVFSQSAGLIQHQR

Variants of: B1
Assay: protein stability index of a GFP-peptide fusion (GPS, HEK-293T) (PSI 1-6); higher = more stable
Conditions: c terminus: a fixed tail appended
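Also: lentivirally expressed fusions sorted by FACS into six bins by GFP to DsRed ratio, PSI derived from sequencing read proportions per bin multiplied by bin number.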

Protein stability index of substitutions, site by site:
L20: R 3.89, T 4.39, Y 3.74, C 3.99, S 4.26, H 4.51, P 4.46, K 4.44
Q9: K 3.12, A 3.79, L 3.11, R 3.13, P 4.08, E 4.45
N2: T 3.36, D 5.66, W 4.2, Y 4.29, H 2.97, R 4.29, S 3.91, K 4.28, L 5.05
Y1: C 4.78, H 5.16, P 5.16, A 4.93
R22: H 3.99, A 4.18, G 3.86, C 3.35, S 3.9, W 2.71, M 3.4
A15: E 4.53, L 2, G 4.28, K 3.96, V 2.53, I 2.29, M 2.93, R 3.56
A14: W 2.51, D 4.29, Q 3.86, V 3.41
E6: Q 2.58, P 3.76, I 3.12, F 2.51, S 3.15
L11: E 5.13, F 2.81, H 4.57, D 5.01
P3: R 3.85, E 5.06, N 4.45, L 4.3, C 3.37, W 1.9
E17: S 3.43, R 3.4, G 2.94, A 3.15, W 2.73, L 2.96, V 2.83, I 3.03
E19: V 2.67, Y 2.42, I 2.85, A 2.63, G 3.8
Q23: F 2.56, Y 3.19, W 2.95, G 4.12, H 3.33
H8: D 4.81, I 2.53, E 4.4, S 4.2, F 1.99
D7: Y 3.52, V 2.92, N 3.98, P 4.13, K 3.62, W 1.92, A 3.72
S4: F 4, L 3.95, P 4.69
Q21: H 2.96, K 3.17, F 3.06, T 3.44, L 2.96, G 3.26, I 3.26, W 3.06
F5: R 3.96, L 3.43, S 3.88, A 4.22
T10: A 3.39, H 3.37, N 4.01, W 2.65, E 4.44, R 2.59, F 2.61
L12: N 4.54, T 4.62, A 4.41, S 4.79, R 4.44, K 4.45
H16: A 3.64, D 4.43, R 3.2, I 2.53, L 3.22, K 3.51, F 2.91
V18: K 4.14, Y 3.49, H 3.28, E 4.44
K24: D 4.28, T 3.98, I 3.33, S 3.97, A 3.39, N 3.96
S13: K 2.58, C 3.25, V 3.2, A 3.21, L 2.9

Variants of: B2
Assay: as above
Conditions: c terminus: a fixed tail appended

Protein stability index: each site, then its substitutions
Q1: N 2.32, A 2.67, V 3.05, M 2.45, T 2.98, S 2.88, Y 2.2, C 2.42, I 3.03, L 2.62, F 2.45, E 3.7, K 3.1, W 1.9, D 3.71, R 3.19, P 3.16, G 2.81, H 2.73
K2: G 3.31, H 3.06, D 3.31, F 2.31, A 2.85, C 2.39, E 3.08
